The experiment has as its target PSD-95 (DLG4) (UniProt Q62108). The experiment is described as follows: GST pull-down from cotransfected COS7 lysate. The settings on record: reference: wild type (treatment condition of comparison not stated); sites T585,T612.

Consider “PSD-93 (DLG2) PDZ3-SH3, 390-620 (from UniProt Q91XM9) T585A/T612A”, for which the “binding against the reference” value is given as “weaker”.

For the origin of these results see publication PMC9820267.
